Data reported in the Human Domainome abundance scans (Beltran et al. 2025).
± gives the uncertainty stated by the source.

B1: Pituitary-specific positive transcription factor 1, residues 130 to 198; numbered along this chain, P28069 (parent)
chain: RELEKFANEFKVRRIKLGYTQTNVGEALAAVHGSEFSQTTICRFENLQLSFKNACKLKAILSKWLEEAE

Variants of: B1
Assay: abundance fitness (aPCA) (normalised: wild type 0, dead -1); higher = more abundant; growth selection in yeast, the domain comes from the species named
Settings: Homo sapiens

Question: Which abundance fitness does the source give for RELEKFANEFKVRRIKLGYTQTNVGEALAAVHGSEFSQTTICRFENLQLSFKNACKLKAILSKWLTEAE [E66T] here?
Answer: The abundance fitness was -0.115 ± 0.093.

Question: Which abundance fitness does the source give for RELEKFANEFKVRRIKLGYTQTNVGEALAAVHGSEFSQTTICRFENLQLSFKNACKLKAILSKWLNEAE [E66N] here?
Answer: The abundance fitness was -0.373 ± 0.14.

Question: With RELEKFANEFKVRRIKLGYTQTNVGEALAAVHGSEFSQTTICRFENLQLSFKNACKLKAILSKWLIEAE [E66I] as the variant, how does the abundance fitness read?
Answer: The abundance fitness was -0.281 ± 0.079.

Question: For RELEKFANEFKVRRIKLGYTQTNVGEALAAVHGSEFSQTTICRFENLQLSFKNACKLKAILSKWLMEAE [E66M], which abundance fitness is on record?
Answer: The abundance fitness was -0.332 ± 0.096.

Question: With RELEKFANEFKVRRIKLGYTQTNVGEALAAVHGSEFSQTTICRFENLQLSFKNACKLKAILSKWLYEAE [E66Y] as the variant, how does the abundance fitness read?
Answer: The abundance fitness was -0.304 ± 0.12.

Question: With RELEKFANEFKVRRIKLGYTQTNVGEALAAVHGSEFSQTTICRFENLQLSFKNACKLKAILSKWLDEAE [E66D] as the variant, how does the abundance fitness read?
Answer: Its abundance fitness is -0.037 ± 0.085.

Question: Which abundance fitness does the source give for RELEKFANEFKVRRIKLGYTQTNVGEALAAVHGSEFSQTTICRFENLQLSFKNACKLKAILSKWLGEAE [E66G] here?
Answer: The abundance fitness was -0.373 ± 0.07.

Question: With RELEKFANEFKVRRIKLGYTQTNVGEALAAVHGSEFSQTTICRFENLQLSFKNACKLKAILSKWLSEAE [E66S] as the variant, how does the abundance fitness read?
Answer: The abundance fitness was -0.335 ± 0.078.

Question: With RELEKFANEFKVRRIKLGYTQTNVGEALAAVHGSEFSQTTICRFENLQLSFKNACKLKAILSKWLQEAE [E66Q] as the variant, how does the abundance fitness read?
Answer: Its abundance fitness is -0.193 ± 0.086.

Question: With RELEKFANEFKVRRIKLGYTQTNVGEALAAVHGSEFSQTTICRFENLQLSFKNACKLKAILSKWLFEAE [E66F] as the variant, how does the abundance fitness read?
Answer: The abundance fitness was -0.242 ± 0.11.

Question: Which abundance fitness does the source give for RELEKFANEFKVRRIKLGYTQTNVGEALAAVHGSEFSQTTICRFENLQLSFKNACKLKAILSKWLWEAE [E66W] here?
Answer: The abundance fitness was -0.562 ± 0.17.

Question: With RELEKFANEFKVRRIKLGYTQTNVGEALAAVHGSEFSQTTICRFENLQLSFKNACKLKAILSKWLCEAE [E66C] as the variant, how does the abundance fitness read?
Answer: The abundance fitness was -0.108 ± 0.077.

Question: With RELEKFANEFKVRRIKLGYTQTNVGEALAAVHGSEFSQTTICRFENLQLSFKNACKLKAILSKWLREAE [E66R] as the variant, how does the abundance fitness read?
Answer: Its abundance fitness is -0.241 ± 0.051.

Question: With RELEKFANEFKVRRIKLGYTQTNVGEALAAVHGSEFSQTTICRFENLQLSFKNACKLKAILSKWLHEAE [E66H] as the variant, how does the abundance fitness read?
Answer: Its abundance fitness is -0.334 ± 0.29.

Question: Which abundance fitness does the source give for RELEKFANEFKVRRIKLGYTQTNVGEALAAVHGSEFSQTTICRFENLQLSFKNACKLKAILSKWLKEAE [E66K] here?
Answer: The abundance fitness was -0.296 ± 0.099.

Question: For RELEKFANEFKVRRIKLGYTQTNVGEALAAVHGSEFSQTTICRFENLQLSFKNACKLKAILSKWLAEAE [E66A], which abundance fitness is on record?
Answer: The abundance fitness was -0.054 ± 0.069.

Question: Which abundance fitness does the source give for RELEKFANEFKVRRIKLGYTQTNVGEALAAVHGSEFSQTTICRFENLQLSFKNACKLKAILSKWLVEAE [E66V] here?
Answer: The abundance fitness was -0.123 ± 0.054.

Question: Which abundance fitness does the source give for RELEKFANEFKVRRIKLGYTQTNVGEALAAVHGSEFSQTTICRFENLQLSFKNACKLKAILSKWLEECE [A68C] here?
Answer: Its abundance fitness is -0.752 ± 0.22.

Question: For RELEKFANEFKVRRIKLGYTQTNVGEALAAVHGSEFSQTTICRFENLQLSFKNACKLKAILSKWLEEDE [A68D], which abundance fitness is on record?
Answer: Its abundance fitness is -0.78 ± 0.34.

Question: For RELEKFANEFKVRRIKLGYTQTNVGEALAAVHGSEFSQTTICRFENLQLSFKNACKLKAILSKWLEEEE [A68E], which abundance fitness is on record?
Answer: The abundance fitness was -0.003 ± 0.063.

Question: Which abundance fitness does the source give for RELEKFANEFKVRRIKLGYTQTNVGEALAAVHGSEFSQTTICRFENLQLSFKNACKLKAILSKWWEEAE [L65W] here?
Answer: Its abundance fitness is -0.719 ± 0.12.

Question: For RELEKFANEFKVRRIKLGYTQTNVGEALAAVHGSEFSQTTICRFENLQLSFKNACKLKAILSKWVEEAE [L65V], which abundance fitness is on record?
Answer: Its abundance fitness is -0.38 ± 0.059.

Question: Which abundance fitness does the source give for RELEKFANEFKVRRIKLGYTQTNVGEALAAVHGSEFSQTTICRFENLQLSFKNACKLKAILSKWYEEAE [L65Y] here?
Answer: The abundance fitness was -0.833 ± 0.18.

Question: Which abundance fitness does the source give for RELEKFANEFKVRRIKLGYTQTNVGEALAAVHGSEFSQTTICRFENLQLSFKNACKLKAILSKWLESAE [E67S] here?
Answer: The abundance fitness was -0.088 ± 0.056.

Question: With RELEKFANEFKVRRIKLGYTQTNVGEALAAVHGSEFSQTTICRFENLQLSFKNACKLKAILSKWLEKAE [E67K] as the variant, how does the abundance fitness read?
Answer: Its abundance fitness is -0.18 ± 0.11.

Question: Which abundance fitness does the source give for RELEKFANEFKVRRIKLGYTQTNVGEALAAVHGSEFSQTTICRFENLQLSFKNACKLKAILSKWLELAE [E67L] here?
Answer: The abundance fitness was -0.594 ± 0.097.

Question: Which abundance fitness does the source give for RELEKFANEFKVRRIKLGYTQTNVGEALAAVHGSEFSQTTICRFENLQLSFKNACKLKAILSKWLEWAE [E67W] here?
Answer: The abundance fitness was -0.203 ± 0.1.

Question: For RELEKFANEFKVRRIKLGYTQTNVGEALAAVHGSEFSQTTICRFENLQLSFKNACKLKAILSKWLEQAE [E67Q], which abundance fitness is on record?
Answer: The abundance fitness was -0.125 ± 0.11.

Question: With RELEKFANEFKVRRIKLGYTQTNVGEALAAVHGSEFSQTTICRFENLQLSFKNACKLKAILSKWLEAAE [E67A] as the variant, how does the abundance fitness read?
Answer: The abundance fitness was -0.214 ± 0.071.

Question: Which abundance fitness does the source give for RELEKFANEFKVRRIKLGYTQTNVGEALAAVHGSEFSQTTICRFENLQLSFKNACKLKAILSKWLEHAE [E67H] here?
Answer: Its abundance fitness is -0.34 ± 0.23.

Question: With RELEKFANEFKVRRIKLGYTQTNVGEALAAVHGSEFSQTTICRFENLQLSFKNACKLKAILSKWLEYAE [E67Y] as the variant, how does the abundance fitness read?
Answer: Its abundance fitness is -0.36 ± 0.09.

Question: With RELEKFANEFKVRRIKLGYTQTNVGEALAAVHGSEFSQTTICRFENLQLSFKNACKLKAILSKWLEFAE [E67F] as the variant, how does the abundance fitness read?
Answer: The abundance fitness was -0.49 ± 0.14.

Question: Which abundance fitness does the source give for RELEKFANEFKVRRIKLGYTQTNVGEALAAVHGSEFSQTTICRFENLQLSFKNACKLKAILSKWLENAE [E67N] here?
Answer: Its abundance fitness is -0.134 ± 0.099.

Question: For RELEKFANEFKVRRIKLGYTQTNVGEALAAVHGSEFSQTTICRFENLQLSFKNACKLKAILSKWLECAE [E67C], which abundance fitness is on record?
Answer: The abundance fitness was -0.301 ± 0.073.

Question: For RELEKFANEFKVRRIKLGYTQTNVGEALAAVHGSEFSQTTICRFENLQLSFKNACKLKAILSKWLEPAE [E67P], which abundance fitness is on record?
Answer: Its abundance fitness is -0.721 ± 0.26.

Question: With RELEKFANEFKVRRIKLGYTQTNVGEALAAVHGSEFSQTTICRFENLQLSFKNACKLKAILSKWLEVAE [E67V] as the variant, how does the abundance fitness read?
Answer: The abundance fitness was -0.39 ± 0.073.

Question: With RELEKFANEFKVRRIKLGYTQTNVGEALAAVHGSEFSQTTICRFENLQLSFKNACKLKAILSKWLETAE [E67T] as the variant, how does the abundance fitness read?
Answer: The abundance fitness was -0.371 ± 0.097.

Question: Which abundance fitness does the source give for RELEKFANEFKVRRIKLGYTQTNVGEALAAVHGSEFSQTTICRFENLQLSFKNACKLKAILSKWLERAE [E67R] here?
Answer: The abundance fitness was -0.172 ± 0.058.

Question: Which abundance fitness does the source give for RELEKFANEFKVRRIKLGYTQTNVGEALAAVHGSEFSQTTICRFENLQLSFKNACKLKAILSKWLEDAE [E67D] here?
Answer: Its abundance fitness is 0.002 ± 0.069.
